The data set deals with the molecule itself. The experiment in a line: AFM imaging + single-molecule force spectroscopy (AFM-SMFS); purified ectodomains in 50 mM TrisHCl/150 mM NaCl/1 mM CaCl2 pH 7.5; imaging on freshly cleaved mica, tapping mode in liquid; SMFS on NTA-Ni2+ coverslips through the His tags, differing persistence length across a trace taken as two cadherins stretched in parallel.

This is an account of results in publication PMC6746995, “Nanomechanics of tip-link cadherins” (Scientific Reports, 2019).

B1: His-tagged full murine PCDH15 ectodomain (domain or fragment)
chain: not shown
notes: protocadherin 15 (PCDH15), murine, full ectodomain (11 EC domains), UniProtKB Q99PJ1; also called protocadherin 15; full-length PCDH15 ectodomain; not shown: His tag, C-terminal, kept
On to B1, for which the binding result was “binds”.
